This is an account of results in patent US5962294A, “Compositions and methods for the identification and synthesis of sialyltransferases” (The Regents of the University of California, priority 1993, dated 1999).

The target in one series is T1, human ST3N (Homo sapiens, UniProt Q11203).
T1 sequence (Q11203 62-375): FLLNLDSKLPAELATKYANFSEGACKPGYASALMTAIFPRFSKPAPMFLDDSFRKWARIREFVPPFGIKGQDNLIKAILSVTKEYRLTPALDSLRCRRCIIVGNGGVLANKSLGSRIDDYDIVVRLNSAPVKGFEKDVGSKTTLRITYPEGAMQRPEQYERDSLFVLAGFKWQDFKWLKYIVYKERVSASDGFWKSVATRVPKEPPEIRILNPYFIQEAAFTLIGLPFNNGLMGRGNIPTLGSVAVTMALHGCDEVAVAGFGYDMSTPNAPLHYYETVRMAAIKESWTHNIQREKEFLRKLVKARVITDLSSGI
In words: Acceptor specificity of soluble human ST3N (protein A fusion from COS-1 cells, on IgG Sepharose). The note with it: acceptor 0.2 mM; relative to LNT.

Another series has as its target T2, α2,3-N sialyltransferase (Rattus norvegicus, UniProt Q02734).
T2 construct: made in house; host or cells: COS-1 (concentrated culture medium, plasmid pBD122)
T2 sequence (Q02734 29-374 limits assumed): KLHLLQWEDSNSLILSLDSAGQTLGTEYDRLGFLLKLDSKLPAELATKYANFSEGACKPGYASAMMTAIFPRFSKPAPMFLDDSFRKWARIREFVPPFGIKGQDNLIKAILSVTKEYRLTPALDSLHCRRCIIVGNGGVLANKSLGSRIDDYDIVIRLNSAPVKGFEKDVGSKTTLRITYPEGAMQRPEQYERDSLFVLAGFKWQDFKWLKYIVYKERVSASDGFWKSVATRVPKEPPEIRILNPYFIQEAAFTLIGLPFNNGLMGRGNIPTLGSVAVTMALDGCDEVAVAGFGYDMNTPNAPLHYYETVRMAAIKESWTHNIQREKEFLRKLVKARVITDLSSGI
In words: Sialyltransferase assay of soluble rat α2,3-N secreted from COS-1 cells (pBD122). It counts as biochemical. Here is the method:
In order to produce a soluble form of the sialyltransferase for enzymatic characterization, a fusion protein containing the catalytic domain of the enzyme and the insulin cleavable signal sequence was constructed in the mammalian expression vector pSVL (Pharmacia). […] PCR reactions were carried out as described above with annealing temperature at 55° C.

In a further series the target is T3, ST3 (Homo sapiens, UniProt Q11206).
T3 construct: A truncated form of ST3, lacking the first 39 amino acids of the long-form open reading frame; made in house; host or cells: COS-1 (concentrated culture medium)
T3 sequence (Q11206 41-333): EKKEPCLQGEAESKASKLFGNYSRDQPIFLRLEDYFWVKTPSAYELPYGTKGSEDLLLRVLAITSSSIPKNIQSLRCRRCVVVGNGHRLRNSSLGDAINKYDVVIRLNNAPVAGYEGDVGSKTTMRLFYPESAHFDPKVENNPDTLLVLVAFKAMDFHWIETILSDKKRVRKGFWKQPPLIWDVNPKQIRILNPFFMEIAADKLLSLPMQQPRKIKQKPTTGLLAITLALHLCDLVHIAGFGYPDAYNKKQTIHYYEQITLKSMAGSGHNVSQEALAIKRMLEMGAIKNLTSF
In words: Acceptor specificity of soluble ST3 (AZ3, concentrated COS-1 media). It is filed as biochemical.

The next series has as its target T4, ST3N (Rattus norvegicus, UniProt Q02734).
T4 sequence (Q02734 29-374 limits assumed): T2 sequence (Q02734 29-374 limits assumed)
In words: Acceptor specificity of ST3N (Table 4). To be noted: acceptor 0.2 mM.

A further series addresses T5, ST3O (Sus scrofa, UniProt Q02745).
T5 sequence (Q02745 28-343 limits assumed): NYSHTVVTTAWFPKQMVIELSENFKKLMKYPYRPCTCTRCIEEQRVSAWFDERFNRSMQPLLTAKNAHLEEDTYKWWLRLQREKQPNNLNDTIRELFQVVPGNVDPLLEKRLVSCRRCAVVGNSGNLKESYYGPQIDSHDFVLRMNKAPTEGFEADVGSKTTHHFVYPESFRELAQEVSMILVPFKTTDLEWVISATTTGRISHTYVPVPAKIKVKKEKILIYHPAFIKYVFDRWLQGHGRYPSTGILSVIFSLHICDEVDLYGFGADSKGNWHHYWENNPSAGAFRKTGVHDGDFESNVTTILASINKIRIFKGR
In words: Acceptor specificity of ST3O (Table 4). To be noted: acceptor 0.2 mM.

The next series concerns the target T6, rat ST3N (Rattus norvegicus, UniProt Q02734).
T6 sequence (Q02734 29-374 limits assumed): T2 sequence (Q02734 29-374 limits assumed)
In words: Acceptor specificity of soluble rat ST3N fusion protein (Table 3). The note with it: acceptor 0.2 mM; relative to LNT.

“Asialo-α1 -acid glycoprotein: glycoprotein acceptor (Galβ1,4GlcNAc-R)”: the “Relative activity (%) Human” value with human ST3N is listed as 14%. The “acceptor utilisation by secreted α2,3-N enzyme” value in the series with α2,3-N sialyltransferase is on record as “capable of sialylating”. The “acceptor substrate for ST3 enzyme (in words)” value with ST3 is recorded as “sialic acid was incorporated”. In addition, the “Relative rate (%) ST3N” value with ST3N was 9%. For the same substance, the “Relative rate (%) ST30” value with ST3O was determined as 0%. In addition, in the series with rat ST3N, the “Relative activity (%) Rat” value came out at 9%.
